Eleven molecules from publication PMC6995573 (2019) can be followed below.

The labels stand for the following.
T1: Human ornithine decarboxylase (human, UniProt P11926 2-421)
T1 chain: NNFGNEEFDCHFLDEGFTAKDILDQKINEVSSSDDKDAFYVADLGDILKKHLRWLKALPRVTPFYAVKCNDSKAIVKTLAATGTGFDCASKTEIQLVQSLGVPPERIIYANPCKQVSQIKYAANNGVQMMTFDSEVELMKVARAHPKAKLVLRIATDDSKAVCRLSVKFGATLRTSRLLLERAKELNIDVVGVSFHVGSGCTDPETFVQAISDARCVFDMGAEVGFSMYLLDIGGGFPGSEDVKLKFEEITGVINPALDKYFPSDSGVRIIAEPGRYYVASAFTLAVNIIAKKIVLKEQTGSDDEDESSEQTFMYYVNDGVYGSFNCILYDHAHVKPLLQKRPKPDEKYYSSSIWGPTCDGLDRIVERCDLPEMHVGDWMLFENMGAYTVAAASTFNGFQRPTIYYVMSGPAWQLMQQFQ

B1: AZ3_WT (natural protein)
chain: MPCKRCRPSVYSLSYIKRGKTRNYLYPIWSPYAYYLYCYKYRITLREKMLPRCYKSITYKEEEDLTLQPRSCLQCSESLVGLQEGKSTEQGNHDQLKELYSAGNLTVLATDPLLHQDPVQLDFHFRLTSQTSAHWHGLLCDRRLFLDIPYQALDQGNRESLTATLEYVEEKTNVDSVFVNFQNDRNDRGALLRAFSYMGFEVVRPDHPALPPLDNVIFMVYPLERDVGHLPSEPP
B2: AZ2 (natural protein)
chain: MINTQDSSILPLSNCPQLQCCRHIVPGPLWCSDAPHPLSKIPGGRGGGRDPSLSALIYKDEKLTVTQDLPVNDGKPHIVHFQYEVTEVKVSSWDAVLSSQSLFVEIPDGLLADGSKEGLLALLEFAEEKMKVNYVFICFRKGREDRAPLLKTFSFLGFEIVRPGHPCVPSRPDVMFMVYPLDQNLSDED
B3: AZ_(95–228)_E105A (domain or fragment)
chain: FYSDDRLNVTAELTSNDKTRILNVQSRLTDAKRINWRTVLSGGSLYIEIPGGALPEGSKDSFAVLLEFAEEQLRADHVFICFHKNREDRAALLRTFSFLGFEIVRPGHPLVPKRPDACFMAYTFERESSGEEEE
B4: AZ_(95–228)_E106A (domain or fragment)
chain: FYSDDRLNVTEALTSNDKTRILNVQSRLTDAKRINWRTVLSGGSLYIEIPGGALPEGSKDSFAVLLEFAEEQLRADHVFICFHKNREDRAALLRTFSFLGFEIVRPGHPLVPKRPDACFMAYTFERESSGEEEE
B5: AZ_(95–228)_D124A (domain or fragment)
chain: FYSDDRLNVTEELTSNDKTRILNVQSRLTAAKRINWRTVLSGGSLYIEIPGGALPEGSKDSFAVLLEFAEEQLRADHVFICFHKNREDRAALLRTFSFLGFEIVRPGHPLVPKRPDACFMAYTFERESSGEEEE
B6: AZ_(95–228)_R100A (domain or fragment)
chain: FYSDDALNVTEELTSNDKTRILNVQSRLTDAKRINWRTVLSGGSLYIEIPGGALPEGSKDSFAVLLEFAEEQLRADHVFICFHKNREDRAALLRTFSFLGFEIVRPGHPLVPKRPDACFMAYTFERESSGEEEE
B7: AZ_(95–228)_R114A (domain or fragment)
chain: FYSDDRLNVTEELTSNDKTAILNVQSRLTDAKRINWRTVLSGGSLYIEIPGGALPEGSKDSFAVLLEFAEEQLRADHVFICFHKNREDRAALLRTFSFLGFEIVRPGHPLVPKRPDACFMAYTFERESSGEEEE
B8: AZ_(95–228)_D111A (domain or fragment)
chain: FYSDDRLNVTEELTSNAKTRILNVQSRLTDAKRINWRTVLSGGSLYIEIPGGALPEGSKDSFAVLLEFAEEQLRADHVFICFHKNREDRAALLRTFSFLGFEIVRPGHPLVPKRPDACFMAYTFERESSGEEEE
B9: AZ_(95–228)_D99A (domain or fragment)
chain: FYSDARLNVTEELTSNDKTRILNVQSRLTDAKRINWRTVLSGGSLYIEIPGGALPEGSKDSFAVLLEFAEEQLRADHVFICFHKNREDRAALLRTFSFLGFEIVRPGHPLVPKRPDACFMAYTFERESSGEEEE
B10: AZ_(95–228)_D98A (domain or fragment)
chain: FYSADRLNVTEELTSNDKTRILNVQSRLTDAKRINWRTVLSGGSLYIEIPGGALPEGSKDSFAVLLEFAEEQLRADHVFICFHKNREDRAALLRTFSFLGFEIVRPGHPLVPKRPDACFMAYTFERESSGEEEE
B11: AZ_(95–228)_R121A (domain or fragment)
chain: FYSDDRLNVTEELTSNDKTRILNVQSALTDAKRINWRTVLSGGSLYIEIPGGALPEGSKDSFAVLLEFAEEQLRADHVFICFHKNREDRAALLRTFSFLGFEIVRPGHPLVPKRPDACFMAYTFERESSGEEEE

One assay has as its target T1, Human ornithine decarboxylase. Nature of the assay: AUC.
For B1, the equilibrium dissociation constant (Kd) (in general, the equilibrium constant for the complex coming apart) turned out to be 590 nM.

With B2, the Kd was 280 nM.

A further assay has the same target. As to the kind of experiment: inhibition of ODC enzyme activity.
As for B1, inhibition was half-maximal at 840 nM (IC50).

B2: inhibition was half-maximal at 190 nM (IC50).

A further assay shares this target. As to the kind of experiment: inhibition of ODC enzyme activity. The source holds these as a separate data set.
Consider B3, for which the IC50 (commonly the point on the concentration scale where inhibition reaches its midpoint) amounted to 190 nM.

On to B4, for which the half-inhibitory concentration (IC50) stood at 200 nM.

Regarding B5, it took 170 nM to reach half-maximal inhibition (IC50).

B6: the 50% inhibitory concentration (IC50) came out at 190 nM.

On to B7, for which the half-inhibitory concentration (IC50) worked out at 160 nM. This IC50 and that of the molecule before are within 1.5-fold of each other.

In turn, B8 came in with an IC50 of 190 nM.

Turning to B9, 170 nM corresponded to half-maximal inhibition (IC50).

As to B10, half-maximal inhibition (IC50) required 180 nM.

The molecule B11 displayed an IC50 of 160 nM.
